From the supplement of paper PMC11246515
± gives the standard deviation of the averaged measurements.

Experiment: total protein half-life in vivo (active degradation + dilution); higher = more stable protein
[1] = wild type E. coli NCM3722, growth: C-lim chemostat, doubling time 12 h
[2] = wild type E. coli NCM3722, growth: P-lim chemostat, doubling time 6 h
[3] = E. coli NCM3722 delta-clpP delta-lon delta-hslV, growth: N-lim chemostat, doubling time 6 h
[4] = wild type E. coli NCM3722, growth: N-lim chemostat, doubling time 12 h
[5] = wild type E. coli NCM3722, growth: P-lim chemostat, doubling time 12 h
[6] = E. coli NCM3722 delta-clpP, growth: N-lim chemostat, doubling time 6 h
[7] = E. coli NCM3722 delta-smpB, growth: N-lim chemostat, doubling time 6 h
[8] = wild type E. coli NCM3722, growth: C-lim chemostat, doubling time 3 h
[9] = wild type E. coli NCM3722, growth: C-lim chemostat, doubling time 6 h
[10] = wild type E. coli NCM3722, growth: N-lim chemostat, doubling time 6 h
[11] = E. coli NCM3722 delta-hslV, growth: N-lim chemostat, doubling time 6 h
[12] = E. coli NCM3722 delta-lon, growth: N-lim chemostat, doubling time 6 h

Sequence | total protein half-life in vivo [1] | total protein half-life in vivo [2] | total protein half-life in vivo [3] | total protein half-life in vivo [4] | total protein half-life in vivo [5] | total protein half-life in vivo [6] | total protein half-life in vivo [7] | total protein half-life in vivo [8] | total protein half-life in vivo [9] | total protein half-life in vivo [10] | total protein half-life in vivo [11] | total protein half-life in vivo [12]
MFTATEAVPVAKVVAGNKRYPGVVALDNVNFTLNKGEVRALLGKNGAGKSTLIRMLTGSERPDSGDIWIGETRLEGDEATLTRRAAELGVRAVYQELSLVEGLTVAENLCLGQWPRRNGMIDYLQMAQDAQRCLQALGVDVSPEQLVSTLSPAQKQLVEIARVMKGEPRVVILDEPTSSLASAEVELVISAVKKMSALGVAVIYVSHRMEEIRRIASCATVMRDGQVAGDVMLENTSTHHIVSLMLGRDHVDIAPVAPQEIVDQAVLEVRALRHKPKLEDISFTLRRGEVLGIAGLLGAGRSELLKAIVGLEEYEQGEIVINGEKITRPDYGDMLKRGIGYTPENRKEAGIIPWLGVDENTVLTNRQKISANGVLQWSTIRRLTEEVMQRMTVKAASSETPIGTLSGGNQQKVVIGRWVYAASQILLLDEPTRGVDIEAKQQIYRIVRELAAEGKSVVFISSEVEELPLVCDRILLLQHGTFSQEFHAPVNVDELMSAILSVH | 7.2 ± 4.9 h | 4.92 h | – | – | – | – | – | – | – | – | – | –
MKQWIAALLLMLIPGVQAAKPQKVTLMVDDVPVAQVLQALAEQEKLNLVVSPDVSGTVSLHLTDVPWKQALQTVVKSAGLITRQEGNILSVHSIAWQNNNIARQEAEQARAQANLPLENRSITLQYADAGELAKAGEKLLSAKGSMTVDKRTNRLLLRDNKTALSALEQWVAQMDLPVGQVELSAHIVTINEKSLRELGVKWTLADAQHAGGVGQVTTLGSDLSVATATTHVGFNIGRINGRLLDLELSALEQKQQLDIIASPRLLASHLQPASIKQGSEIPYQVSSGESGATSVEFKEAVLGMEVTPTVLQKGRIRLKLHISQNVPGQVLQQADGEVLAIDKQEIETQVEVKSGETLALGGIFTRKNKSGQDSVPLLGDIPWFGQLFRHDGKEDERRELVVFITPRLVSSE | 6.11 h | – | 3.42 ± 1.4 h | 4.56 h | 4.33 h | – | – | – | – | – | – | –
MSEPQRLFFAIDLPAEIREQIIHWRATHFPPEAGRPVAADNLHLTLAFLGEVSAEKEKALSLLAGRIRQPGFTLTLDDAGQWLRSRVVWLGMRQPPRGLIQLANMLRSQAARSGCFQSNRPFHPHITLLRDASEAVTIPPPGFNWSYAVTEFTLYASSFARGRTRYTPLKRWALTQ | 11 h | 5.55 ± 0.13 h | 5.3 ± 0.55 h | 8.49 ± 0.71 h | 11.33 ± 0.097 h | 4.8 h | 4.66 ± 0.56 h | 3.11 h | 6.25 ± 0.27 h | 5.03 ± 0.89 h | – | –
MVKKSEFERGDIVLVGFDPASGHEQQGAGRPALVLSVQAFNQLGMTLVAPITQGGNFARYAGFSVPLHCEEGDVHGVVLVNQVRMMDLHARLAKRIGLAADEVVEEALLRLQAVVE | – | – | – | 6.76 h | 10.7 h | – | – | – | 6.08 h | – | – | –
MGNNLMQTDLSVWGMYQHADIVVKCVMIGLILASVVTWAIFFSKSVEFFNQKRRLKREQQLLAEARSLNQANDIAADFGSKSLSLHLLNEAQNELELSEGSDDNEGIKERTSFRLERRVAAVGRQMGRGNGYLATIGAISPFVGLFGTVWGIMNSFIGIAQTQTTNLAVVAPGIAEALLATAIGLVAAIPAVVIYNVFARQIGGFKAMLGDVAAQVLLLQSRDLDLEASAAAHPVRVAQKLRAG [P0ABU7] | 3.22 h | 1.38 h | 6.15 ± 0.21 h | – | 3.56 h | 6.38 ± 2.2 h | 1.58 ± 1 h | 1.68 ± 0.17 h | 1.99 h | – | – | –
MTITKLAWRDLVPDTDSYQEIFAQPHLIDENDPLFSDTQPRLQFALEQLLHTRASSSFMLAKAPEESEYLNLIANAARTLQSDAGQLVGGHYEVSGHSIRLRHAVSADDNFATLTQVVAADWVEAEQLFGCLRQFNGDITLQPGLVHQANGGILIISLRTLLAQPLLWMRLKNIVNRERFDWVAFDESRPLPVSVPSMPLKLKVILVGERESLADFQEMEPELSEQAIYSEFEDTLQIVDAESVTQWCRWVTFTARHNHLPAPGADAWPILIREAARYTGEQETLPLSPQWILRQCKEVASLCDGDTFSGEQLNLMLQQREWREGFLAERMQDEILQEQILIETEGERIGQINALSVIEFPGHPRAFGEPSRISCVVHIGDGEFTDIERKAELGGNIHAKGMMIMQAFLMSELQLEQQIPFSASLTFEQSYSEVDGDSASMAELCALISALADVPVNQSIAITGSVDQFGRAQPVGGLNEKIEGFFAICQQRELTGKQGVIIPTANVRHLSLHSELVKAVEEGKFTIWAVDDVTDALPLLLNLVWDGEGQTTLMQTIQERIAQASQQEGRHRFPWPLRWLNWFIPN | 9.75 ± 2.2 h | 6.4 ± 0.075 h | 6.81 ± 0.57 h | 13.7 ± 1.1 h | 12.6 ± 1.4 h | 6.24 ± 0.11 h | 6.58 ± 0.43 h | 3.017 ± 0.024 h | 5.99 ± 0.54 h | 6.17 ± 0.21 h | 7.24 ± 1.1 h | 6 ± 0.53 h
MAVTKLVLVRHGESQWNKENRFTGWYDVDLSEKGVSEAKAAGKLLKEEGYSFDFAYTSVLKRAIHTLWNVLDELDQAWLPVEKSWKLNERHYGALQGLNKAETAEKYGDEQVKQWRRGFAVTPPELTKDDERYPGHDPRYAKLSEKELPLTESLALTIDRVIPYWNETILPRMKSGERVIIAAHGNSLRALVKYLDNMSEEEILELNIPTGVPLVYEFDENFKPLKRYYLGNADEIAAKAAAVANQGKAK | 10.3 ± 0.34 h | 6.02 ± 0.45 h | 5.09 ± 0.33 h | 8.63 ± 0.17 h | 12 ± 0.62 h | 5.4 ± 0.96 h | 4.7 ± 0.09 h | 3.18 ± 0.098 h | 6.37 ± 0.56 h | 4.85 ± 0.46 h | 5.11 ± 0.76 h | 5.42 ± 0.82 h
MATLTEDDVLEQLDAQDNLFSFMKTAHTILLQGIRQFLPSLFVDNDEEIVEYAVKPLLAQSGPLDDIDVALRLIYALGKMDKWLYADITHFSQFWHYLNEQDETPGFADDMTWDFISNVNSITRNAMLYDALKAMKFADFSVWSEARFSGMVKTALTLAVTTTLKELTP | 4.45 ± 0.14 h | 2.29 h | 4.21 ± 0.82 h | 4.18 h | 3.96 ± 1 h | 3.67 h | 2.07 h | 2.02 h | > 8 h | 2.38 h | 2.45 h | 2.61 ± 0.36 h
MAKIKGQVKWFNESKGFGFITPADGSKDVFVHFSAIQGNGFKTLAEGQNVEFEIQDGQKGPAAVNVTAI [P0A9Y6] | 5.61 ± 1.2 h | 2.94 ± 0.28 h | 4.07 ± 0.35 h | 3.96 ± 0.13 h | 5 ± 1.2 h | 3.26 ± 0.19 h | 2.65 ± 0.03 h | 2.24 ± 0.71 h | 3.23 ± 0.29 h | 2.83 ± 0.21 h | 2.88 ± 0.095 h | 3.98 ± 0.54 h
